# ± gives the standard deviation of the averaged measurements.
# Test system: Saccharomyces cerevisiae
# Test: protein stability index of tFT-peptide fusion (C-terminal peptide) (PSI (0-1 scale)); higher = more stable (slower turnover)
# Conditions: genetic background: wild type; temperature: 30 C
# 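Further: PSI is a weighted mean of sequencing reads over stability bins, variants kept only with over 10 reads, mCherry proximal and sfGFP distal, peptide attached via GGGS linker.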
row,Sequence,protein stability index
1,RGPLNPNWPPTD,0.7 ± 0.037
2,RGPPIPTLRYQH,0.746 ± 0.079
3,RGPTGEDLCSAM,0.696 ± 0.032
4,RGPVSQNPEINF,0.732 ± 0.02
5,RGRGGDERSVRG,0.644 ± 0.013
6,RGRGKAGGETTV,0.686 ± 0.035
7,RGRVLDTRDWGP,0.666 ± 0.059
8,RGSCPFQSWRCS,0.59 ± 0.038
9,RGSGEVVLFGVG,0.671 ± 0.057
10,RGSRVDLKLSKK,0.678 ± 0.019
11,RGSWRGLADSGV,0.676 ± 0.08
12,RGTYACGMGGVG,0.654 ± 0.074
13,RGVAGSTLGLRI,0.566 ± 0.069
14,RGVGGREGAAPV,0.691 ± 0.0093
15,RGVIKNKIKRLK,0.768 ± 0.078
16,RGVRGLWGGKRG,0.626 ± 0.015
17,RGWDEHRVGSEY,0.671 ± 0.095
18,RGWKGGLSLGEI,0.586 ± 0.021
19,RGWLSAWDENGK,0.704 ± 0.019
20,RHGTRHKLLGTL,0.659 ± 0.016
21,RHIDSRDPTDSP,0.651 ± 0.081
22,RHLFGTGIMPER,0.683 ± 0.12
23,RHPLPHNLSPYP,0.78 ± 0.0065

row,Sequence,protein stability index
1,RHPSAPRPVPLM,0.695 ± 0.11
2,RHTYSPRAPVPD,0.707 ± 0.025
3,RIEKYKKKKETK,0.712 ± 0.084
4,RIIHIHKLFLRR,0.677 ± 0.071
5,RIKHKNRNKKKN,0.791 ± 0.033
6,RIKQKEEKRNRY,0.779 ± 0.01
7,RILSFVSCYSLL,0.506 ± 0.0035
8,RILVFCPSSFGL,0.64 ± 0.018
9,RINGPLHRLSVA,0.657 ± 0.015
10,RIQYKKKNRKGI,0.628 ± 0.037
11,RITMNMHSLIIP,0.711 ± 0.032
12,RITTVPNSNPGN,0.689 ± 0.08
13,RITVPIGYHSVS,0.6891 ± 0.0009
14,RKAEWIKQYDMH,0.479 ± 0.072
15,RKEGRGEEPEKG,0.65 ± 0.049
16,RKGNHAHEPSCI,0.686 ± 0.0034
17,RKIERKHIKEFS,0.664 ± 0.0089
18,RKIKKRITREKM,0.617 ± 0.082
19,RKKKKKEKKKVE,0.741 ± 0.037
20,RKKKTRGKEKRR,0.683 ± 0.097
21,RKKNVYGKKIKI,0.656 ± 0.083
22,RKKRGKNEERQD,0.707 ± 0.056
23,RKLKQGIVSKKK,0.66 ± 0.052

row,Sequence,protein stability index
1,RKLNRKEKLQLT,0.646 ± 0.051
2,RKNKLKQNKKYR,0.718 ± 0.012
3,RKNYRISYKLLD,0.715 ± 0.02
4,RKRSRQLNRQLK,0.603 ± 0.0074
5,RKTKKKKENKRR,0.7131 ± 0.0043
6,RKTSIKNKKKKI,0.693 ± 0.059
7,RKVTSIESGVMT,0.655 ± 0.038
8,RKVYHSTRNTRK,0.702 ± 0.11
9,RLCFAPRVLPTH,0.604 ± 0.041
10,RLDMKLAIDISR,0.7631 ± 0.0011
11,RLDRARTPPAST,0.779 ± 0.05
12,RLEGNRGPWRQD,0.786 ± 0.1
13,RLFCLRSVSLVS,0.572 ± 0.015
14,RLIHRLLGLFPS,0.69 ± 0.06
15,RLILLPLFLSDS,0.729 ± 0.092
16,RLITGTKLFNGM,0.765 ± 0.045
17,RLKLKSECYSPL,0.667 ± 0.034
18,RLLLRNAASSSS,0.691 ± 0.042
19,RLLPPSPPPPPS,0.667 ± 0.035
20,RLPHPHPVRSLP,0.7 ± 0.022
21,RLPSSPPSATWL,0.6784 ± 0.0019
22,RLPSSSFSPHRA,0.688 ± 0.0069
23,RLRKEKGKKIQY,0.697 ± 0.073

row,Sequence,protein stability index
1,RLRPLSPPTLCD,0.665 ± 0.044
2,RLRRLYSLRTYL,0.543 ± 0.033
3,RLTSPPYSFFLH,0.644 ± 0.019
4,RLVHSRPPPFAS,0.794 ± 0.13
5,RMRRAHCQQSGG,0.6537 ± 0.0037
6,RNEDYQKKRKGK,0.701 ± 0.022
7,RNIRGDYKGRRL,0.6455 ± 0.0019
8,RNKHREEIERQT,0.672 ± 0.031
9,RNKKDIKIQIKR,0.68 ± 0.049
10,RNKKIKKKKGRN,0.701 ± 0.069
11,RNKRPDQRERKQ,0.692 ± 0.17
12,RNLHVSMGKCSP,0.722 ± 0.21
13,RNLRCDIVNVYP,0.759 ± 0.015
14,RNRLTTMCRHLE,0.655 ± 0.062
15,RNRNDRIKKLKR,0.667 ± 0.014
16,RPAAPGSKGDDN,0.7 ± 0.043
17,RPAGGPRGGEGV,0.648 ± 0.058
18,RPAMSPPPLCPP,0.625 ± 0.027
19,RPASVHDLSLQC,0.681 ± 0.033
20,RPCDLISGFCGL,0.695 ± 0.012
21,RPDSPSPLPPPP,0.637 ± 0.028
22,RPELRRETARVR,0.644 ± 0.038
23,RPEVRTGPASTH,0.676 ± 0.032

row,Sequence,protein stability index
1,RPFLLWRVVTPL,0.611 ± 0.016
2,RPGLCLTFFSAH,0.666 ± 0.032
3,RPGSWINEITKE,0.69944 ± 0.00024
4,RPKVSRIKENKY,0.727 ± 0.02
5,RPLPLRLDGSGS,0.719 ± 0.047
6,RPLPPPPAPPPL,0.706 ± 0.029
7,RPLSPPSAPTSF,0.679 ± 0.0055
8,RPLTSVTPLPTL,0.6988 ± 0.0067
9,RPLVYIKHLALL,0.44 ± 0.17
10,RPNTVHLQALYN,0.6802 ± 0.0046
11,RPNWSRFTSIYA,0.653 ± 0.016
12,RPPINRLCPWLL,0.671 ± 0.032
13,RPPLIPAALLFL,0.589 ± 0.048
14,RPPLLPPLDAPS,0.713 ± 0.027
15,RPPLPPPPPLPP,0.578 ± 0.03
16,RPPPPRPRSLLS,0.654 ± 0.097
17,RPPPRSPPLPRL,0.806 ± 0.03
18,RPPPSAIPPPSP,0.6274 ± 0.0014
19,RPPTASPLVAPA,0.655 ± 0.0067
20,RPRCAPSPPLPP,0.691 ± 0.047
21,RPSLEKQETEKT,0.696 ± 0.056
22,RPSLSRSSLLSP,0.701 ± 0.032
23,RPTSPCPNHRLE,0.667 ± 0.097

row,Sequence,protein stability index
1,RQCGKGGKEGAA,0.653 ± 0.051
2,RQFVTACPLWRH,0.676 ± 0.046
3,RQQKTNERRPRT,0.648 ± 0.04
4,RQWAISRRWVVR,0.562 ± 0.021
5,RQYCTRDHNIIK,0.732 ± 0.025
6,RRAGGARGKTSE,0.645 ± 0.014
7,RRAGRGGIGKGG,0.591 ± 0.018
8,RRDLKNVRLPDR,0.675 ± 0.055
9,RRESAGFGLVWG,0.709 ± 0.017
10,RRFPYGPFDFSI,0.6645 ± 0.0049
11,RRGCTKYGSYII,0.696 ± 0.082
12,RRGCYLFTPRPG,0.648 ± 0.015
13,RRGLRVTETPVR,0.772 ± 0.011
14,RRGWRRGGLGNG,0.683 ± 0.052
15,RRHGDVGFGVGW,0.82 ± 0.1
16,RRHPRLPSLSGL,0.651 ± 0.044
17,RRIVAPYSGEAA,0.774 ± 0.013
18,RRKEEEGKEVRK,0.666 ± 0.01
19,RRMDGHLRELPA,0.685 ± 0.058
20,RRNARRARARWR,0.637 ± 0.065
21,RRNPTCPSGTQK,0.7 ± 0.021
22,RRPFPSSVVFPH,0.702 ± 0.023
23,RRPRIANIETDY,0.678 ± 0.0046

row,Sequence,protein stability index
1,RRRGRGAVGATR,0.716 ± 0.073
2,RRRLLCVCDLMM,0.576 ± 0.038
3,RRSCSMQISSRN,0.642 ± 0.045
4,RRSLSVYPRFRT,0.714 ± 0.037
5,RRSRFSGACLLM,0.773 ± 0.13
6,RRTRRSTGHATG,0.665 ± 0.043
7,RRTSPNKNLKNQ,0.618 ± 0.097
8,RRVPTDQYRLLE,0.696 ± 0.027
9,RRVYGRELHPSQ,0.731 ± 0.029
10,RRWATGGVIGGR,0.677 ± 0.0074
11,RSALVPPRLPAS,0.675 ± 0.075
12,RSCAHATLAYVP,0.771 ± 0.082
13,RSDCLIDSRMVD,0.694 ± 0.094
14,RSDRDGPPRGDS,0.719 ± 0.087
15,RSFPPPPARSLP,0.711 ± 0.039
16,RSGCGYCLVRLG,0.541 ± 0.0007
17,RSGGSSPRRLFT,0.7 ± 0.0095
18,RSHAHTRNGSSA,0.675 ± 0.022
19,RSHLLPPPRHQH,0.7333 ± 0.00099
20,RSLGGGVGARFV,0.695 ± 0.037
21,RSLSPPPASPIP,0.6755 ± 0.0051
22,RSLYGLMNPPRG,0.71 ± 0.011
